Source: patent publication US20230009539

System: Purified recombinant SF2

Recombinant IKKi
in vitro kinase assay: IKKi indeed was able to phosphorylate SF2 in vitro
